Data as given in US20150126710A1 (APOGENIX, published 2015).

B1: TRAILR2mut-A-CCSPD (ligand)
chain: QRVAAHITGTRGRSNTLSSPNSKNEKALGRKINSWESSRSGHSFLSNLHLRNGELVIHEKGFYYIYSQTQFKFREEIKENTKNDKQMVQYIYKYTSYPDPILLMKSARNSCWSKDAEYGLYSIYQGGIFELKENDRIFVSVTNERLLQMDHEASFFGAFLVGSSGSSGSSGSGLPDVASLRQQVEALQGQVQHLQAAFSQYKKVELFPNGPSSSSSSAWSHPQFEK
notes: Used as HEK293 supernatant
B2: TRAILR2mut-ASPD (ligand)
chain: QRVAAHITGTRGRSNTLSSPNSKNEKALGRKINSWESSRSGHSFLSNLHLRNGELVIHEKGFYYIYSQTQFKFREEIKENTKNDKQMVQYIYKYTSYPDPILLMKSARNSCWSKDAEYGLYSIYQGGIFELKENDRIFVSVTNERLLQMDHEASFFGAFLVGSSGSSGSSGSGLPDVASLRQQVEALQGQVQHLQAAFSQYKKVELFPNGQSVGEKIFKTAGFVKPFTEAQLLCTQAGGQLASPRSAAENAALQQLVVAKNEAAFLSMTDSKTEGKFTYPTGESLVYSNWAPGEPNDDGGSEDCVEIFTNGKWNDRACGEKRLVVCEFGGSPSSSSSSAWSHPQFEK
notes: TRAIL-Receptor 2 selective mutein of the human TRAIL-RBD, A-linker, neck + CRD of human SP-D, linker element and Strep-tag II; Signal peptide 1-20 left out; Homotrimer by SEC; also called Sp-TRAILR2mut-ASPD
B3: TRAILR2mut-D-CCSPD (ligand)
chain: QRVAAHITGTRGRSNTLSSPNSKNEKALGRKINSWESSRSGHSFLSNLHLRNGELVIHEKGFYYIYSQTQFKFREEIKENTKNDKQMVQYIYKYTSYPDPILLMKSARNSCWSKDAEYGLYSIYQGGIFELKENDRIFVSVTNERLLQMDHEASFFGAFLVGSGLPDVASLRQQVEALQGQVQHLQAAFSQYKKVELFPNGPSSSSSSAWSHPQFEK
notes: Used as HEK293 supernatant
B4: TRAILR2mut-D-SPD (ligand)
chain: QRVAAHITGTRGRSNTLSSPNSKNEKALGRKINSWESSRSGHSFLSNLHLRNGELVIHEKGFYYIYSQTQFKFREEIKENTKNDKQMVQYIYKYTSYPDPILLMKSARNSCWSKDAEYGLYSIYQGGIFELKENDRIFVSVTNERLLQMDHEASFFGAFLVGSGLPDVASLRQQVEALQGQVQHLQAAFSQYKKVELFPNGQSVGEKIFKTAGFVKPFTEAQLLCTQAGGQLASPRSAAENAALQQLVVAKNEAAFLSMTDSKTEGKFTYPTGESLVYSNWAPGEPNDDGGSEDCVEIFTNGKWNDRACGEKRLVVCEFGGSPSSSSSSAWSHPQFEK
notes: Used as HEK293 supernatant
B5: LIGHT-ASPD (ligand)
chain: EVNPAAHLTGANSSLTGSGGPLLWETQLGLAFLRGLSYHDGALVVTKAGYYYIYSKVQLGGVGCPLGLASTITHGLYKRTPRYPEELELLVSQQSPCGRATSSSRVWWDSSFLGGVVHLEAGEEVVVRVLDERLVRLRDGTRSYFGAFMVGSSGSSGSSGSGLPDVASLRQQVEALQGQVQHLQAAFSQYKKVELFPNGQSVGEKIFKTAGFVKPFTEAQLLCTQAGGQLASPRSAAENAALQQLVVAKNEAAFLSMTDSKTEGKFTYPTGESLVYSNWAPGEPNDDGGSEDCVEIFTNGKWNDRACGEKRLVVCEFGGSPSSSSSSAWSHPQFEK
notes: Human LIGHT-RBD (Glu91-Val240), A-linker, neck + CRD of human SP-D, linker element and Strep-tag II; Signal peptide 1-20 left out; Trimer by SEC, glycosylated; also called Sp-LIGHT-ASPD

Experiments:
TRAIL-Receptor 1-Fc [1] = target: T1, TRAIL-Receptor 1-Fc (UniProt O00220 109-239, limits assumed); test: Streptactin-ELISA, supernatant immobilized, constant concentration of TRAIL-Receptor 1-Fc (FIG. 14A)
T1 construct: Bought from R&D Systems; also called TRAILR1; not shown: Fc part of the bought fusion protein
Experimental: (§1) To determine the binding of receptors to constructed ligands, streptactin-coated 96-well microplates were used. Therefore, supernatants from transiently transfected HEK293 cells, mouse sera or purified proteins were immobilized on streptactin-plates (IBA GmbH) for 1-3 hours in PBS. Samples were diluted in ELISA binding/blocking buffer (PBS, 0.1% Tween-20, 20% SuperBlock T20-PBS (Pierce)). Plates were washed with PBS+0.1% Tween-20 and incubated with mouse-anti-TRAIL antibody (Pharmingen, clone RIK-2), TRAIL-Receptor 1-Fc (R&D Systems), TRAIL-Receptor 2-Fc (R&D Systems), TACI-Fc (R&D Systems) or HVEM-Fc (R&D Systems) for one hour at room temperature. Plates were again washed and Fc-proteins were detected with anti-human- or anti-mouse-Fc-specific peroxidase-conjugated antibodies (Sigma). Colour reaction was done by addition of 100 μl per well of TMB substrate (Kem-En-Tec Diagnostics) and the absorbance at 450 nm and 630 nm was determined with an ELISA reader after addition of 25 μl of 25% H₂SO₄ as stop-solution. Values were calculated as 450 nm-630 nm with MS Excel.
The selectivity of TRAIL-Receptor 1 or TRAIL-Receptor 2 towards fusion proteins of SPD/ccSPD and TRAIL, TRAILR1 mut and TRAILR2mut was shown by Streptactin-ELISA. Therefore, TRAIL-SPD-fusion proteins in supernatants from transiently transfected HEK293 cells were immobilized on Streptactin coated microplates. Cell supernatant from untransfected cells served as negative control. Specifically bound proteins were detected with constant (A, B) or varying (C, D) concentrations of either TRAIL-Receptor 1-Fc or TRAIL-Receptor 2-Fc. As shown in (A), the ligand TRAILR1 mut fused to SPD variants is deteced by TRAIL-Receptor 1, whereas the ligand TRAILR2mut is not. As shown in (B), the ligand TRAILR2mut is preferentially detected by TRAIL-Receptor 2, whereas TRAILR1 mut- and TRAIL wild-type constructs are equally well detected. As shown in C, TRAIL-Receptor 1-Fc bound to TRAIL-R1mut-ASPD and TRAIL-ASPD equally well over the whole receptor titration range, whereas TRAIL-R2mut-ASPD is not detected. As shown in D, TRAIL-Receptor 2-Fc bound to TRAIL-R2mut-ASPD and TRAIL-ASPD equally well over the receptor titration range analyzed, whereas the signal for TRAIL-R1mut-ASPD decreased rapidely with decreasing concentrations of receptor.

TRAIL-Receptor 1-Fc [2] = target: T1, TRAIL-Receptor 1-Fc; test: Streptactin-ELISA, LIGHT-ASPD immobilized via Strep-tag II
Experimental: as §1
Varying concentrations (0-10 microgram/ml) of affinity and SEC purified, trimeric LIGHT-ASPD were used for immobilized via the Strep-tag II on Streptactin-coated microplates. LIGHT-ASPD was then detected in a ELISA set-up using 100 ng/ml of Fc-fusion proteins of the receptors HVEM and TRAIL-Receptor 1, respectively. […]

T1 sequence (O00220 109-239 limits assumed): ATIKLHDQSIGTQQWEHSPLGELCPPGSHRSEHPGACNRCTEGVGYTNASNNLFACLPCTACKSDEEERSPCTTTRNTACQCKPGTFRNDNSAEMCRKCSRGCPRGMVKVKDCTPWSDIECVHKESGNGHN

| Binder | binding result (TRAIL-Receptor 1-Fc [1]) | binding result (TRAIL-Receptor 1-Fc [2]) |
| --- | --- | --- |
| B1 | no binding |  |
| B2 | no binding |  |
| B3 | no binding |  |
| B4 | no binding |  |
| B5 |  | no binding |
